Test results: US20210261648A1 (published 2021)
Where a chain is given by its changes, count along the chain named.

T1: FcγRIIb extracellular domain with C-terminal His tag (human, UniProt P31994 43-217)
T1 construct: extracellular domain; also called FcgRIIb
T1 sequence (looked up): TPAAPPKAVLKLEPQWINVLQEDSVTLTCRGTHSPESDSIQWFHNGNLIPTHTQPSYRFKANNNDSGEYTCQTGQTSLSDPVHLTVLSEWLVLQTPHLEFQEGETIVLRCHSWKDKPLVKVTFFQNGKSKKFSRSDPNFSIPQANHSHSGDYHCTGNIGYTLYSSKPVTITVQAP

T2: FcγRIIa type H extracellular domain with C-terminal His tag (human, UniProt P12318 34-217)
T2 construct: extracellular domain; also called FcgRIIaH; FcγRIIa H
T2 sequence (looked up): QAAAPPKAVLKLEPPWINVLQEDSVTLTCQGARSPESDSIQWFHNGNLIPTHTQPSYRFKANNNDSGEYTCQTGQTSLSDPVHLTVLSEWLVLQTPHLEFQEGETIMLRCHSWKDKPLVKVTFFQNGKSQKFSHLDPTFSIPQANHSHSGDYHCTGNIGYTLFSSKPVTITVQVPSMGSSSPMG

B1: IL6R-BP084/IL6R-L (antibody, human IgG1, kappa)
heavy: QVQLQESGPGLVKPSETLSLTCAVSGHSISHDHAWSWVRQPPGEGLEWIGFISYSGITNYNPSLQGRVTISRDNSKNTLYLQMNSLRAEDTAVYYCARSLARTTAMDYWGEGTLVTVSSASTKGPSVFPLAPSSKSTSGGTAALGCLVKDYFPEPVTVSWNSGALTSGVHTFPAVLQSSGLYSLSSVVTVPSSSLGTQTYICNVNHKPSNTKVDKKVEPKSCDKTHTCPPCPAPELLGGDSVFLFPPKPKDTLMISRTPEVTCVVVDVSHEDPEVKFNWYVDGVEVHNAKTKPREEQYNSTYRVVSVLTVLHQDWLNGKEYKCKMSNKALPKPIEKTISKAKGQPREPQVYTLPPSRDELTKNQVSLTCLVKGFYPSDIAVEWESNGQPENNYKTTPPVLDSDGSFFLYSKLTVDKSRWQQGNVFSCSVMHEALHNHYTQESLSLSP
light: not shown
B2: IL6R-BP087/IL6R-L (antibody, human IgG1, kappa)
heavy: B1 heavy with L236Y, M325V
light: not shown
B3: IL6R-BP088/IL6R-L (antibody, human IgG1, kappa)
heavy: B1 heavy with G239D, M325V, K328A
light: not shown
B4: IL6R-BP089/IL6R-L (antibody, human IgG1, kappa)
heavy: B1 heavy with L236Y, M325V, K328A
light: not shown
B5: IL6R-BP131/IL6R-L (antibody, human IgG1, kappa)
heavy: B1 heavy with E235D, G239D, M325V
light: not shown
B6: IL6R-BP145/IL6R-L (antibody, human IgG1, kappa)
heavy: B1 heavy with L236Y, G239D, M325V, K332A
light: not shown
B7: IL6R-BP146/IL6R-L (antibody, human IgG1, kappa)
heavy: B1 heavy with L236Y, G239D, M325V, K328A, K332A
light: not shown
B8: IL6R-BP147/IL6R-L (antibody, human IgG1, kappa)
heavy: B1 heavy with L236Y, G239D, M325V, K328A
light: not shown
B9: IL6R-BP148/IL6R-L (antibody, human IgG1, kappa)
heavy: B1 heavy with E235D, L236Y, G239D, M325V, K328A
light: not shown
B10: IL6R-BP149/IL6R-L (antibody, human IgG1, kappa)
heavy: B1 heavy with E235D, L236Y, G239D, Y298D, M325V, K328A
light: not shown
B11: IL6R-BP150/IL6R-L (antibody, human IgG1, kappa)
heavy: B1 heavy with L236Y, G239D, M325V, K328A, K332R
light: not shown
B12: IL6R-BP151/IL6R-L (antibody, human IgG1, kappa)
heavy: B1 heavy with E235D, L236Y, G239D, M325V, K328A, K332R
light: not shown
B13: IL6R-BP152/IL6R-L (antibody, human IgG1, kappa)
heavy: B1 heavy with E235D, L236Y, G239D, Y298D, M325V, K328A, K332R
light: not shown
B14: IL6R-BP177/IL6R-L (antibody, human IgG1, kappa)
heavy: B1 heavy with E235D, L236Y, G239D, P273G, M325V, K328D
light: not shown
B15: IL6R-BP178/IL6R-L (antibody, human IgG1, kappa)
heavy: B1 heavy with E235D, G239D, P273G, M325V
light: not shown
B16: IL6R-BP179/IL6R-L (antibody, human IgG1, kappa)
heavy: B1 heavy with G239D, P273G, M325V, K328A
light: not shown
B17: IL6R-BP180/IL6R-L (antibody, human IgG1, kappa)
heavy: B1 heavy with G239D, P273G, M325V
light: not shown
B18: IL6R-BP183/IL6R-L (antibody, human IgG1, kappa)
heavy: B1 heavy with E235D, L236Y, P273G, M325V, K328A
light: not shown
B19: IL6R-BP186/IL6R-L (antibody, human IgG1, kappa)
heavy: B1 heavy with E235D, L236Y, G239D, P273G, Y298D, M325V, K328A
light: not shown
B20: IL6R-BP187/IL6R-L (antibody, human IgG1, kappa)
heavy: B1 heavy with L236Y, P273G, M325V, K328A
light: not shown
B21: IL6R-BP189/IL6R-L (antibody, human IgG1, kappa)
heavy: B1 heavy with G239D, H270D, P273G, M325V, K328A
light: not shown
B22: IL6R-BP190/IL6R-L (antibody, human IgG1, kappa)
heavy: B1 heavy with G239D, H270D, P273G, M325V
light: not shown
B23: IL6R-BP194/IL6R-L (antibody, human IgG1, kappa)
heavy: B1 heavy with E235D, L236Y, G239D, H270D, P273G, M325V, K328A
light: not shown
B24: IL6R-BP195/IL6R-L (antibody, human IgG1, kappa)
heavy: B1 heavy with E235D, L236Y, G239D, H270D, P273G, Y298D, M325V, K328A
light: not shown
B25: IL6R-BP196/IL6R-L (antibody, human IgG1, kappa)
heavy: B1 heavy with L236Y, H270D, P273G, M325V, K328A
light: not shown
B26: IL6R-BP197/IL6R-L (antibody, human IgG1, kappa)
heavy: B1 heavy with E235D, L236Y, G239D, H270D, P273G, Y298D, M325V, K328D
light: not shown
B27: IL6R-BP198/IL6R-L (antibody, human IgG1, kappa)
heavy: B1 heavy with E235D, L236Y, H270D, P273G, M325V, K328A
light: not shown
B28: IL6R-BP200/IL6R-L (antibody, human IgG1, kappa)
heavy: B1 heavy with E235D, L236Y, G239D, P273G, M325V, K328D, K332R
light: not shown
B29: IL6R-BP201/IL6R-L (antibody, human IgG1, kappa)
heavy: B1 heavy with E235D, G239D, P273G, M325V, K332R
light: not shown

How the values were obtained:
Assay in all cases: SPR, captured antibody, FcgR analyte
[1] = molecular target: T1, FcγRIIb extracellular domain with …
Procedure: (§1) Relative binding activities were calculated for the results of analyzing interactions with the respective FcγRs according to the following method.

[2] = molecular target: T2, FcγRIIa type H extracellular domain …
Procedure: as §1

[3] = molecular target: T3, FcγRIa extracellular domain with C-terminal His tag (human, UniProt P12314 16-292)
T3 construct: also called FcgRIa
T3 sequence (P12314 16-292): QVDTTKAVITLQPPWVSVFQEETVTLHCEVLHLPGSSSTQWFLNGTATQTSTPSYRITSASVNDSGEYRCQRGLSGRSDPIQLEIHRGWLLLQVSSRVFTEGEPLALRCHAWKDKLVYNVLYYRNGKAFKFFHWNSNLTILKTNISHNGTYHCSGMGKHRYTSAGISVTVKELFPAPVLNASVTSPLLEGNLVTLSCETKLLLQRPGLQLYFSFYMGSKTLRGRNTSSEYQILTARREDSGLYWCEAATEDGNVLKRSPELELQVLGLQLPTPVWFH
Procedure: as §1

Binder | relative binding activity [1] | relative binding activity [2] | relative binding activity [3]
B1 | 141 relative (IL6R-BF648/IL6R-L = 100) | 162 relative (IL6R-BF648/IL6R-L = 100) | 109 relative (IL6R-BF648/IL6R-L = 100)
B2 | 137 relative (IL6R-BF648/IL6R-L = 100) | 179 relative (IL6R-BF648/IL6R-L = 100) | 33 relative (IL6R-BF648/IL6R-L = 100)
B3 | 161 relative (IL6R-BF648/IL6R-L = 100) | 166 relative (IL6R-BF648/IL6R-L = 100) | 25 relative (IL6R-BF648/IL6R-L = 100)
B4 | 147 relative (IL6R-BF648/IL6R-L = 100) | 186 relative (IL6R-BF648/IL6R-L = 100) | 43 relative (IL6R-BF648/IL6R-L = 100)
B5 |  | 253 relative (IL6R-BF648/IL6R-L = 100) | 33 relative (IL6R-BF648/IL6R-L = 100)
B6 | 152 relative (IL6R-BF648/IL6R-L = 100) | 224 relative (IL6R-BF648/IL6R-L = 100) | 41 relative (IL6R-BF648/IL6R-L = 100)
B7 | 156 relative (IL6R-BF648/IL6R-L = 100) | 203 relative (IL6R-BF648/IL6R-L = 100) | 
B8 | 177 relative (IL6R-BF648/IL6R-L = 100) | 582 relative (IL6R-BF648/IL6R-L = 100) | 24 relative (IL6R-BF648/IL6R-L = 100)
B9 | 176 relative (IL6R-BF648/IL6R-L = 100) | 462 relative (IL6R-BF648/IL6R-L = 100) | 33 relative (IL6R-BF648/IL6R-L = 100)
B10 | 173 relative (IL6R-BF648/IL6R-L = 100) | 401 relative (IL6R-BF648/IL6R-L = 100) | 29 relative (IL6R-BF648/IL6R-L = 100)
B11 | 183 relative (IL6R-BF648/IL6R-L = 100) | 770 relative (IL6R-BF648/IL6R-L = 100) | 30 relative (IL6R-BF648/IL6R-L = 100)
B12 |  | 621 relative (IL6R-BF648/IL6R-L = 100) | 39 relative (IL6R-BF648/IL6R-L = 100)
B13 | 178 relative (IL6R-BF648/IL6R-L = 100) | 548 relative (IL6R-BF648/IL6R-L = 100) | 34 relative (IL6R-BF648/IL6R-L = 100)
B14 | 177 relative (IL6R-BF648/IL6R-L = 100) | 409 relative (IL6R-BF648/IL6R-L = 100) | 57 relative (IL6R-BF648/IL6R-L = 100)
B15 | 179 relative (IL6R-BF648/IL6R-L = 100) | 259 relative (IL6R-BF648/IL6R-L = 100) | 
B16 | 177 relative (IL6R-BF648/IL6R-L = 100) | 226 relative (IL6R-BF648/IL6R-L = 100) | 39 relative (IL6R-BF648/IL6R-L = 100)
B17 | 179 relative (IL6R-BF648/IL6R-L = 100) | 203 relative (IL6R-BF648/IL6R-L = 100) | 29 relative (IL6R-BF648/IL6R-L = 100)
B18 | 164 relative (IL6R-BF648/IL6R-L = 100) | 191 relative (IL6R-BF648/IL6R-L = 100) | 83 relative (IL6R-BF648/IL6R-L = 100)
B19 | 175 relative (IL6R-BF648/IL6R-L = 100) | 368 relative (IL6R-BF648/IL6R-L = 100) | 43 relative (IL6R-BF648/IL6R-L = 100)
B20 | 157 relative (IL6R-BF648/IL6R-L = 100) | 205 relative (IL6R-BF648/IL6R-L = 100) | 68 relative (IL6R-BF648/IL6R-L = 100)
B21 | 177 relative (IL6R-BF648/IL6R-L = 100) | 183 relative (IL6R-BF648/IL6R-L = 100) | 56 relative (IL6R-BF648/IL6R-L = 100)
B22 |  | 224 relative (IL6R-BF648/IL6R-L = 100) | 50 relative (IL6R-BF648/IL6R-L = 100)
B23 | 178 relative (IL6R-BF648/IL6R-L = 100) | 395 relative (IL6R-BF648/IL6R-L = 100) | 69 relative (IL6R-BF648/IL6R-L = 100)
B24 |  | 344 relative (IL6R-BF648/IL6R-L = 100) | 68 relative (IL6R-BF648/IL6R-L = 100)
B25 | 157 relative (IL6R-BF648/IL6R-L = 100) | 195 relative (IL6R-BF648/IL6R-L = 100) | 89 relative (IL6R-BF648/IL6R-L = 100)
B26 | 179 relative (IL6R-BF648/IL6R-L = 100) | 294 relative (IL6R-BF648/IL6R-L = 100) | 71 relative (IL6R-BF648/IL6R-L = 100)
B27 | 164 relative (IL6R-BF648/IL6R-L = 100) | 188 relative (IL6R-BF648/IL6R-L = 100) | 104 relative (IL6R-BF648/IL6R-L = 100)
B28 | 188 relative (IL6R-BF648/IL6R-L = 100) | 517 relative (IL6R-BF648/IL6R-L = 100) | 60 relative (IL6R-BF648/IL6R-L = 100)
B29 | 186 relative (IL6R-BF648/IL6R-L = 100) | 359 relative (IL6R-BF648/IL6R-L = 100) | 57 relative (IL6R-BF648/IL6R-L = 100)
